Measured values from patent publication US20220211812A1 (Bristol-Myers Squibb, published 2022).

T1: human RXFP1 receptor (human, UniProt Q9HBX9 1-757)
T1 sequence (looked up): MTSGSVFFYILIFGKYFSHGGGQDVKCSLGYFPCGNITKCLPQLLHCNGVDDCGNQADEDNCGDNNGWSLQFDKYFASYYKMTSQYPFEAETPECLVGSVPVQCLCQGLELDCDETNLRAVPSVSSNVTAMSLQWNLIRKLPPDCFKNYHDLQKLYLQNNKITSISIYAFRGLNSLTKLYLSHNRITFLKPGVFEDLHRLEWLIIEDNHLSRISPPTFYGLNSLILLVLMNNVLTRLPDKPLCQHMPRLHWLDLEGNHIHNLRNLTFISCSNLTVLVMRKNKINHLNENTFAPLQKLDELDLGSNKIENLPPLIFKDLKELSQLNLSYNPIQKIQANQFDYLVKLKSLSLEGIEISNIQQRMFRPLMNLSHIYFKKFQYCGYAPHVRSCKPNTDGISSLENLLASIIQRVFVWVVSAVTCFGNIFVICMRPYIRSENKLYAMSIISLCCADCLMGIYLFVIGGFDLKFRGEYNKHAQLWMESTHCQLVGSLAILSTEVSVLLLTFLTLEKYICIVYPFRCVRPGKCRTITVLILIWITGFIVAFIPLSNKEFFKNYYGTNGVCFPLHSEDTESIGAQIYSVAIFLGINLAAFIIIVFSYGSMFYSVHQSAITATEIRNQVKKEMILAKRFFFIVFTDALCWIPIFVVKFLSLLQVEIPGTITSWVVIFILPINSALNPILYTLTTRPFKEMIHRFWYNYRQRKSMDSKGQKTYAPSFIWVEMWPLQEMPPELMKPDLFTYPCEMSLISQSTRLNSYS

B1: AQ1-Glu-C13-COOH (ligand)
chain 1: XLYSALANKCCHVGCTKRSLARFC
chain 2: ASWMEEVIKLCGRELVRAQIAICGMSTWS
modifications: not fully specified; pAcF (para-acetyl-L-phenylalanine) at position 1, oxime-linked to PK enhancer Glu-C13-COOH
B2: AQ1-Glu-C13-CH3 (ligand)
chain 1: XLYSALANKCCHVGCTKRSLARFC
chain 2: ASWMEEVIKLCGRELVRAQIAICGMSTWS
modifications: not fully specified; pAcF (para-acetyl-L-phenylalanine) at position 1, oxime-linked to PK enhancer Glu-C13-CH3
B3: AQ1-KGPGSE-Glu^γ-C14-COOH (ligand)
chain 1: XLYSALANKCCHVGCTKRSLARFC
chain 2: ASWMEEVIKLCGRELVRAQIAICGMSTWS
peptide: KGPGSEE
modifications: not fully specified; Glu^γ bonded by amide to fatty acid -C14-COOH; oxime-linked to pAcF of the A chain; pAcF (para-acetyl-L-phenylalanine) at position 1, oxime-linked to PK enhancer KGPGSE-Glu^γ-C14-COOH
B4: AQ1-GGGGP-Glu^γ-C14-COOH (ligand)
chain 1: XLYSALANKCCHVGCTKRSLARFC
chain 2: ASWMEEVIKLCGRELVRAQIAICGMSTWS
peptide: GGGGPE
modifications: not fully specified; Glu^γ bonded by amide to fatty acid -C14-COOH; oxime-linked to pAcF of the A chain; pAcF (para-acetyl-L-phenylalanine) at position 1, oxime-linked to PK enhancer GGGGP-Glu^γ-C14-COOH
B5: AQ1-KKGGS-Glu^γ -C15-COOH (ligand)
chain 1: XLYSALANKCCHVGCTKRSLARFC
chain 2: ASWMEEVIKLCGRELVRAQIAICGMSTWS
peptide: KKGGSE
modifications: not fully specified; Glu^γ bonded by amide to fatty acid -C15-COOH; oxime-linked to pAcF of the A chain; pAcF (para-acetyl-L-phenylalanine) at position 1, oxime-linked to PK enhancer KKGGS-Glu^γ-C15-COOH
B6: AQ1-GSPGSP-Glu^γ-C14-COOH (ligand)
chain 1: XLYSALANKCCHVGCTKRSLARFC
chain 2: ASWMEEVIKLCGRELVRAQIAICGMSTWS
peptide: GSPGSPE
modifications: not fully specified; Glu^γ bonded by amide to fatty acid -C14-COOH; oxime-linked to pAcF of the A chain; pAcF (para-acetyl-L-phenylalanine) at position 1, oxime-linked to PK enhancer GSPGSP-Glu^γ-C14-COOH
B7: AQ1-PEG36-Glu-C13-CH3 (ligand)
chain 1: XLYSALANKCCHVGCTKRSLARFC
chain 2: ASWMEEVIKLCGRELVRAQIAICGMSTWS
modifications: not fully specified; pAcF (para-acetyl-L-phenylalanine) at position 1, oxime-linked to PK enhancer PEG36-Glu-C13-CH3
B8: AQ1-EGGGP-Glu^γ-C14-COOH (ligand)
chain 1: XLYSALANKCCHVGCTKRSLARFC
chain 2: ASWMEEVIKLCGRELVRAQIAICGMSTWS
peptide: EGGGPE
modifications: not fully specified; Glu^γ bonded by amide to fatty acid -C14-COOH; oxime-linked to pAcF of the A chain; pAcF (para-acetyl-L-phenylalanine) at position 1, oxime-linked to PK enhancer EGGGP-Glu^γ-C14-COOH
B9: AQ1-PEG36-Glu-C13-COOH (ligand)
chain 1: XLYSALANKCCHVGCTKRSLARFC
chain 2: ASWMEEVIKLCGRELVRAQIAICGMSTWS
modifications: not fully specified; pAcF (para-acetyl-L-phenylalanine) at position 1, oxime-linked to PK enhancer PEG36-Glu-C13-COOH
B10: AQ1-Spermine-Glu^γ-C14-COOH (ligand)
chain 1: XLYSALANKCCHVGCTKRSLARFC
chain 2: ASWMEEVIKLCGRELVRAQIAICGMSTWS
modifications: not fully specified; pAcF (para-acetyl-L-phenylalanine) at position 1, oxime-linked to PK enhancer Spermine-Glu^γ-C14-COOH (compound 27 of Example 6)
B11: AQ1-EGGS-Glu^γ-C14-COOH (ligand)
chain 1: XLYSALANKCCHVGCTKRSLARFC
chain 2: ASWMEEVIKLCGRELVRAQIAICGMSTWS
peptide: EGGSE
modifications: not fully specified; Glu^γ bonded by amide to fatty acid -C14-COOH; oxime-linked to pAcF of the A chain; pAcF (para-acetyl-L-phenylalanine) at position 1, oxime-linked to PK enhancer EGGS-Glu^γ-C14-COOH

target: T1, human RXFP1 receptor; test: cell-based or functional assay

Row | Binder | hRXFP1/CHO-K1 cAMP EC50 (nM, avg)
1 | B1 | 0.18 nM
2 | B2 | 0.95 nM
3 | B3 | 0.6 nM
4 | B4 | 0.39 nM
5 | B5 | 1.36 nM
6 | B6 | 0.29 nM
7 | B7 | 0.15 nM
8 | B8 | 0.44 nM
9 | B9 | 0.25 nM
10 | B10 | 0.39 nM
11 | B11 | 0.33 nM
